In patent publication US20250179589A1, “SYNTHETIC LETHALITY AND THE TREATMENT OF CANCER” (PACYLEX PHARMACEUTICALS INC., priority 2012, published 2025):
Blank lines part the entries; values can stand above or below the molecule they belong to.

Key:
[1] = system: Jurkat T cells; experiment: Effect of HMA on the induction of apoptosis, immunoblot; format: cell-based, human
Procedure: HMA was saponified and conjugated to bovine serum albumin (BSA) prior to addition to cells to facilitate its cellular uptake as described previously (Yap et al., 2010). Briefly, HMA was incubated with a 20% molar excess of potassium hydroxide (KOH) at 65° C. for 15 min. Subsequently, a 20× solution was made by dissolving the KOH saponified HMA in serum-free RPMI media containing 20% fatty acid-free BSA at 37° C., followed by an additional 15 min incubation at 37° C. Since sodium myristate was used as a control, it was also incubated in serum-free RPMI media containing 20% fatty acid-free BSA at 37° C. prior to addition to cells. Subsequently, Jurkat T cells (1×10^7 cells) were incubated with either 1 mM HMA or 1 mM sodium myristate conjugated to fatty-acid free BSA (final concentration in cell culture 1%) for 1 h at 37° C. in RPMI media (without FBS, supplements or antibiotics). After incubation, apoptosis was induced using anti-Fas (150 ng/mL) or STS (2.5 μM) with cycloheximide (5 μg/mL) or vehicle alone (DMSO). Samples were collected every 2 h for an 8 h period, washed with cold PBS and lysed with 0.3 mL of 1% sodium dodecyl sulfate (SDS)-radio-immuno-precipitation assay (RIPA) buffer and subjected to 2 rounds of sonication for 15 seconds at an output of 5.5-6.5 on a Branson Sonifier and placed on ice for 2 min in between each cycle. […]

[2] = target: myristoylatable decapeptide corresponding to the N-terminal sequence of ct-Bid; experiment: cell-based or functional assay
[3] = target: T1, myristoylatable decapeptide corresponding to the N-terminal sequence of ct-Bid
T1 chain: GNRSSHSRLG

[4] = target: T2, His-NMT2 (recombinant hexahistidine-tagged full-length human N-myristoyltransferase 2), O60551
T2 chain: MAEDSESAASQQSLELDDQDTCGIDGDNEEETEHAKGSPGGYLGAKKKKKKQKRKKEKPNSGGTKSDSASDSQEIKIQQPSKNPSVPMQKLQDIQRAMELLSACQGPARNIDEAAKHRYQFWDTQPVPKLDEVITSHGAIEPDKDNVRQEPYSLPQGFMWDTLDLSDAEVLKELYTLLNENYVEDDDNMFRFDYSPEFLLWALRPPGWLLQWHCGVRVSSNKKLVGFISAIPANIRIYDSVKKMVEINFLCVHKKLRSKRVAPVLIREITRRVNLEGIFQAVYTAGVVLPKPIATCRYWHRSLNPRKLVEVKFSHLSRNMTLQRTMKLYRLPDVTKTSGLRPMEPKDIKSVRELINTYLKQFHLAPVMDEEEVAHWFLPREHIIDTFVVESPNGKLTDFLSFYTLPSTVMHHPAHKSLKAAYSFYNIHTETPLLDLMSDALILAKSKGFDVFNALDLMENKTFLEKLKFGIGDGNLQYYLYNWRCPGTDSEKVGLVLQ

[5] = target: T3, His-NMT1 (recombinant hexahistidine-tagged full-length human N-myristoyltransferase 1), P30419
T3 chain: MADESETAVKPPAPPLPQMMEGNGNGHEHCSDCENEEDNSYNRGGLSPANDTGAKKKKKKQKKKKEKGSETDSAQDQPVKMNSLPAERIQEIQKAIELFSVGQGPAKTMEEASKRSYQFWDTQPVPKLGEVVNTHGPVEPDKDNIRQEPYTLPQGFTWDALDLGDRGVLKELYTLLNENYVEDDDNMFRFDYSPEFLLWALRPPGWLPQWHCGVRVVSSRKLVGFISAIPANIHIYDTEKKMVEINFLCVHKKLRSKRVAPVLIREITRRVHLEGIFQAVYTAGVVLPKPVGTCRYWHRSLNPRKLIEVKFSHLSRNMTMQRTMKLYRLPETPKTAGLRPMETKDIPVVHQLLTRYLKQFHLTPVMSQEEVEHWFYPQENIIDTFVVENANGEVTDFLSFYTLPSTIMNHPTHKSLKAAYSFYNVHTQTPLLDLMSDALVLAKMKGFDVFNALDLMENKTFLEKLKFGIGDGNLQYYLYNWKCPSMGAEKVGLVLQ

Molecule: CCCCCCCCCCCCC(O)C(=O)O (stereo not shown) [HMA, 2-hydroxymyristic acid]
time by which cleavage of PARP-1 occurred sooner than with 1 mM sodium myristate ([1]; 1 mM HMA and anti-Fas): 2 h
PARP-1 and PAK2 cleavage vs STS and 1 mM sodium myristate ([1]; HMA/STS, 2 h post induction): more PARP-1 and PAK2 cleavage

NMT activity in lysates of transfected COS-7 cells relative to cells expressing V5-NMT2 (peptide myristoylation assay) [2]: 5 fold
Molecule: V5-NMT1 (N-terminally V5-tagged NMT1) (from UniProt P30419 1-496) (enzyme)

B1: His-68NMT2 (His-tagged caspase-cleaved, truncated human NMT2) (protein)
chain: SASDSQEIKIQQPSKNPSVPMQKLQDIQRAMELLSACQGPARNIDEAAKHRYQFWDTQPVPKLDEVITSHGAIEPDKDNVRQEPYSLPQGFMWDTLDLSDAEVLKELYTLLNENYVEDDDNMFRFDYSPEFLLWALRPPGWLLQWHCGVRVSSNKKLVGFISAIPANIRIYDSVKKMVEINFLCVHKKLRSKRVAPVLIREITRRVNLEGIFQAVYTAGVVLPKPIATCRYWHRSLNPRKLVEVKFSHLSRNMTLQRTMKLYRLPDVTKTSGLRPMEPKDIKSVRELINTYLKQFHLAPVMDEEEVAHWFLPREHIIDTFVVESPNGKLTDFLSFYTLPSTVMHHPAHKSLKAAYSFYNIHTETPLLDLMSDALILAKSKGFDVFNALDLMENKTFLEKLKFGIGDGNLQYYLYNWRCPGTDSEKVGLVLQ
NMT activity (filter-based peptide myristoylation assay) [3]: both full-length and caspase cleaved truncated NMT1 and NMT2 were catalytically active when compared to the control
NMT activity relative to full-length NMT2 (filter-based peptide myristoylation assay) [3]: ˜4-fold (His-68NMT2) more activity when compared to full-length NMT2

B2: His-73NMT1 (His-tagged caspase-cleaved, truncated human NMT1) (protein)
chain: SAQDQPVKMNSLPAERIQEIQKAIELFSVGQGPAKTMEEASKRSYQFWDTQPVPKLGEVVNTHGPVEPDKDNIRQEPYTLPQGFTWDALDLGDRGVLKELYTLLNENYVEDDDNMFRFDYSPEFLLWALRPPGWLPQWHCGVRVVSSRKLVGFISAIPANIHIYDTEKKMVEINFLCVHKKLRSKRVAPVLIREITRRVHLEGIFQAVYTAGVVLPKPVGTCRYWHRSLNPRKLIEVKFSHLSRNMTMQRTMKLYRLPETPKTAGLRPMETKDIPVVHQLLTRYLKQFHLTPVMSQEEVEHWFYPQENIIDTFVVENANGEVTDFLSFYTLPSTIMNHPTHKSLKAAYSFYNVHTQTPLLDLMSDALVLAKMKGFDVFNALDLMENKTFLEKLKFGIGDGNLQYYLYNWKCPSMGAEKVGLVLQ
NMT activity (filter-based peptide myristoylation assay) [3]: both full-length and caspase cleaved truncated NMT1 and NMT2 were catalytically active when compared to the control

B3: recombinant human active caspase-3 (protein)
chain: SGISLDNSYKMDYPEMGLCIIINNKNFHKSTGMTSRSGTDVDAANLRETFRNLKYEVRNKNDLTREEIVELMRDVSKEDHSKRSSFVCVLLSHGEEGIIFGTNGPVDLKKITNFFRGDRCRSLTGKPKLFIIQACRGTELDCGIETDSGVDDDMACHKIPVEADFLYAYSTAPGYYSWRNSKDGSWFIQSLCAMLKQYADKLEFMHILTRVNRKVATEFESFSFDATFHAKKQIPCIVSMLTKELYFYH
in vitro NMT cleavage assay (Coomassie stained gel) [4]: Reconstitution of NMT1 cleavage by caspases-8 and -3, and, NMT2 cleavage by caspase-3 in vitro
in vitro NMT cleavage assay (Coomassie stained gel) [5]: Reconstitution of NMT1 cleavage by caspases-8 and -3, and, NMT2 cleavage by caspase-3 in vitro

B4: His-NMT1 (recombinant hexahistidine-tagged full-length human N-myristoyltransferase 1) (protein)
chain: T3 chain
NMT activity (filter-based peptide myristoylation assay) [3]: both full-length and caspase cleaved truncated NMT1 and NMT2 were catalytically active when compared to the control

B5: His-NMT2 (recombinant hexahistidine-tagged full-length human N-myristoyltransferase 2) (protein)
chain: T2 chain
NMT activity (filter-based peptide myristoylation assay) [3]: both full-length and caspase cleaved truncated NMT1 and NMT2 were catalytically active when compared to the control

B6: His-26NMT2 (His-tagged caspase-cleaved, truncated human NMT2) (protein)
chain: GDNEEETEHAKGSPGGYLGAKKKKKKQKRKKEKPNSGGTKSDSASDSQEIKIQQPSKNPSVPMQKLQDIQRAMELLSACQGPARNIDEAAKHRYQFWDTQPVPKLDEVITSHGAIEPDKDNVRQEPYSLPQGFMWDTLDLSDAEVLKELYTLLNENYVEDDDNMFRFDYSPEFLLWALRPPGWLLQWHCGVRVSSNKKLVGFISAIPANIRIYDSVKKMVEINFLCVHKKLRSKRVAPVLIREITRRVNLEGIFQAVYTAGVVLPKPIATCRYWHRSLNPRKLVEVKFSHLSRNMTLQRTMKLYRLPDVTKTSGLRPMEPKDIKSVRELINTYLKQFHLAPVMDEEEVAHWFLPREHIIDTFVVESPNGKLTDFLSFYTLPSTVMHHPAHKSLKAAYSFYNIHTETPLLDLMSDALILAKSKGFDVFNALDLMENKTFLEKLKFGIGDGNLQYYLYNWRCPGTDSEKVGLVLQ
NMT activity (filter-based peptide myristoylation assay) [3]: both full-length and caspase cleaved truncated NMT1 and NMT2 were catalytically active when compared to the control
NMT activity relative to full-length NMT2 (filter-based peptide myristoylation assay) [3]: ˜3-fold (His-26NMT2) ... more activity when compared to full-length NMT2

B7: recombinant human active caspase-8 (protein)
chain: SESQTLDKVYQMKSKPRGYCLIINNHNFAKAREKVPKLHSIRDRNGTHLDAGALTTTFEELHFEIKPHDDCTVEQIYEILKIYQLMDHSNMDCFICCILSHGDKGIIYGTDGQEAPIYELTSQFTGLKCPSLAGKPKVFFIQACQGDNYQKGIPVETDSEEQPYLEMDLSSPQTRYIPDEADFLLGMATVNNCVSYRNPAEGTWYIQSLCQSLRERCPRGDDILTILTEVNYEVSNKDDKKNMGKQMPQPTFTLRKKLVFPSD
in vitro NMT cleavage assay (Coomassie stained gel) [5]: Reconstitution of NMT1 cleavage by caspases-8 and -3, and, NMT2 cleavage by caspase-3 in vitro
